13 substances from paper PMC3355127 can be followed below.

Data set [1] can be described thus: whole-blood perfusion over collagen, 2500 s-1, platelet coverage. Particulars: glycan lost; control: blood of WT-VWF expressing mice.
Data set [2] is described as follows: SDS/2% agarose multimer gel of plasma, densitometry. The following applies: glycan lost; control: WT mVwf cDNA.
Data set [3] can be described thus: plasma VWF:Ag ELISA after hydrodynamic injection in VWF-/- mice. The following applies: glycan lost; control: WT mVwf cDNA.
The nature of data set [4]: in vivo NHS-biotin labelling, residual biotinylated VWF in plasma. The following applies: glycan lost; control: WT-mVWF.
The nature of data set [5]: VWF antigen ELISA, COS-7 lysate (intracellular retention). The following applies: glycan lost; control: WT mVwf. For orientation: An ELISA detects its analyte on a solid surface through an enzyme-linked reagent.
A short description of data set [6]: VWF antigen ELISA, COS-7 supernatant. The following applies: glycan lost; control: WT mVwf.

murine VWF (mVWF): S1486A: the “other: thrombus formation on collagen under flow, other: platelet surface coverage” value (shortened to “other: thrombus formation on collagen”) in data set [1] is on record as “decreases, 11.6±1.0 vs 15.8±0.9”. The oligomerisation entry in data set [2] is given as “no change”. In data set [3], the “expression_or_secretion, other: VWF:Ag, % of normal murine plasma” value is reported as “no change”.
Regarding murine VWF (mVWF): S1486A/S1487A, the oligomerisation result in data set [2] is listed as “no change”. In addition, the “expression_or_secretion, other: VWF:Ag, % of normal murine plasma” value in data set [3] was “no change”.
Consider murine VWF (mVWF): S1487A, for which the oligomerisation entry in data set [2] is “no change”. In addition, in data set [3], the “expression_or_secretion, other: VWF:Ag, % of normal murine plasma” value is listed as “no change”.
Take murine VWF (mVWF): T1248A: the oligomerisation result in data set [2] is reported as “no change”. For the same substance, the “expression_or_secretion, other: VWF:Ag, % of normal murine plasma” value in data set [3] is given as “no change”.
Consider “murine VWF (mVWF): T1248A/T1255A/T1256A (cluster 1)”, for which, in data set [2], the oligomerisation result is “no change”. For the same substance, the “expression_or_secretion, other: VWF:Ag, % of normal murine plasma” value in data set [3] is on record as “no change”.
As to murine VWF (mVWF): T1255A, the “other: thrombus formation on collagen” value in data set [1] is given as “decreases, 8.2±1.2 vs 15.8±0.9”. The oligomerisation result in data set [2] is listed as “no change”. In addition, the “expression_or_secretion, other: VWF:Ag, % of normal murine plasma” value in data set [3] was “no change”.
murine VWF (mVWF): T1255A/T1256A: the “degradation_or_half_life, half_life” value in data set [4] is given as “decreases, 3.0±0.3 vs 6.1±1”. Besides, in data set [5], the localisation_or_trafficking entry is listed as “no change”. Further, the expression_or_secretion result in data set [6] is “no change”. For the same substance, in data set [1], the “other: thrombus formation on collagen” value is on record as “decreases, 6.0±0.9 vs 15.8±0.9”. Moreover, the oligomerisation entry in data set [2] is reported as “no change”. Further, the “expression_or_secretion, other: VWF:Ag, % of normal murine plasma” value in data set [3] is “decreases, 432±55 vs 833±76”.
Regarding murine VWF (mVWF): T1256A, the “other: thrombus formation on collagen” value in data set [1] was “decreases, 6.4±1.2 vs 15.8±0.9”. Besides, the oligomerisation entry in data set [2] is listed as “no change”. Besides, the “expression_or_secretion, other: VWF:Ag, % of normal murine plasma” value in data set [3] is recorded as “no change”.
As to murine VWF (mVWF): T1468A, the oligomerisation result in data set [2] is “no change”. The “expression_or_secretion, other: VWF:Ag, % of normal murine plasma” value in data set [3] was “no change”.
On to “murine VWF (mVWF): T1468A/T1477A/S1486A/S1487A (cluster 2)”, for which the oligomerisation entry in data set [2] is on record as “no change”. Besides, the “expression_or_secretion, other: VWF:Ag, % of normal murine plasma” value in data set [3] was “no change”.
For the substance murine VWF (mVWF): T1477A, in data set [2], the oligomerisation entry was “no change”. For the same substance, the “expression_or_secretion, other: VWF:Ag, % of normal murine plasma” value in data set [3] is “no change”.
Turning to murine VWF (mVWF): T1679A, in data set [2], the oligomerisation entry is given as “no change”. In data set [3], the “expression_or_secretion, other: VWF:Ag, % of normal murine plasma” value is reported as “no change”.
In the case of murine VWF (mVWF): T2298A, the oligomerisation result in data set [2] was “no change”. For the same substance, the “expression_or_secretion, other: VWF:Ag, % of normal murine plasma” value in data set [3] is reported as “no change”.
